The results in this text go back to the supplement of paper PMC9112550, “Optimization of the antimicrobial peptide Bac7 by deep mutational scanning” (BMC Biology, 2022).
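Further: peptides expressed intracellularly from a pBAD plasmid library in pooled LB shake-flask culture, induced with 0.3% L-arabinose, DNA abundance read by NGS, three biological replicates, DESeq2 with apeglm shrinkage.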

This series relates to Escherichia coli TOP10. Briefly: shrunken log2 fold change of peptide-encoding DNA abundance (4.5 h post-induction vs induction); higher = less antimicrobial activity (less host growth inhibition). Conditions: time post-induction: 4.5 h; library: site-saturation at positions 5, 18, 19, 20.
Consider RRIRMRPPRLPRPRPRPISWPRP, for which the “shrunken log2 fold change” value is 0.109.
As to RRIRGRPPRLPRPRPRPAWGPRP, the “shrunken log2 fold change” value was found to be 0.268.
The figure for RRIRGRPPRLPRPRPRPRNRPRP is 0.637.
The figure for RRIRQRPPRLPRPRPRPPSKPRP is 0.353.
Turning to RRIRTRPPRLPRPRPRPTGEPRP, the “shrunken log2 fold change” value came out at 0.178.
The same measure for RRIRSRPPRLPRPRPRPKNLPRP: -0.599; for RRIRVRPPRLPRPRPRPPHHPRP: 0.0413; for RRIRCRPPRLPRPRPRPHDHPRP: -0.307.
The same measure for RRIRERPPRLPRPRPRPNNQPRP: -0.59.
The figure for RRIRLRPPRLPRPRPRPQGDPRP is -0.0165; for RRIRHRPPRLPRPRPRPTIYPRP it is -0.254; for RRIRARPPRLPRPRPRPNDIPRP it is -0.448.
For RRIRNRPPRLPRPRPRPTHMPRP, the “shrunken log2 fold change” value is 0.0687.
The figure for RRIRMRPPRLPRPRPRPFFVPRP is -0.0457.
Consider RRIRKRPPRLPRPRPRPIDFPRP, for which the “shrunken log2 fold change” value is 0.131.
The figure for RRIRGRPPRLPRPRPRPSDLPRP is 0.0731; for RRIRTRPPRLPRPRPRPVEEPRP it is -0.08.
The same measure for RRIRDRPPRLPRPRPRPGYPPRP: 0.0463.
Regarding RRIRQRPPRLPRPRPRPFEYPRP, the “shrunken log2 fold change” value was -0.0368.
Take RRIRTRPPRLPRPRPRPKYLPRP: the “shrunken log2 fold change” value is -0.0222.
On to RRIRTRPPRLPRPRPRPVMNPRP, for which the “shrunken log2 fold change” value was -0.143.
As to RRIRFRPPRLPRPRPRPALMPRP, the “shrunken log2 fold change” value is -0.0289.
With RRIRSRPPRLPRPRPRPTVTPRP, the “shrunken log2 fold change” value is 0.166.
The same measure for RRIRDRPPRLPRPRPRPLPMPRP: 0.0543; for RRIRPRPPRLPRPRPRPDPEPRP: 0.136.
On to RRIRCRPPRLPRPRPRPDFSPRP, for which the “shrunken log2 fold change” value was -0.377.
The figure for RRIRRRPPRLPRPRPRPWQVPRP is 0.0694.
For RRIRSRPPRLPRPRPRPHYAPRP, the “shrunken log2 fold change” value is -0.247.
Consider RRIRQRPPRLPRPRPRPWQAPRP, for which the “shrunken log2 fold change” value was determined as 0.124.
Regarding RRIRFRPPRLPRPRPRPCECPRP, the “shrunken log2 fold change” value is -0.138.
Consider RRIRYRPPRLPRPRPRPYKAPRP, for which the “shrunken log2 fold change” value is 0.019.
Turning to RRIRNRPPRLPRPRPRPEQHPRP, the “shrunken log2 fold change” value was 0.0592.
The same measure for RRIRPRPPRLPRPRPRPEAKPRP: 1.03.
The same measure for RRIRMRPPRLPRPRPRPIQHPRP: -0.124; for RRIRHRPPRLPRPRPRPDEFPRP: -0.0223.
With RRIRYRPPRLPRPRPRPVNRPRP, the “shrunken log2 fold change” value is -0.655.
For RRIRLRPPRLPRPRPRPNIPPRP, the “shrunken log2 fold change” value is -0.823.
The same measure for RRIRARPPRLPRPRPRPVQGPRP: 0.47; for RRIRQRPPRLPRPRPRPNSWPRP: 0.0283; for RRIRTRPPRLPRPRPRPRLIPRP: -0.113.
The figure for RRIRSRPPRLPRPRPRPRNEPRP is 0.00717.
The figure for RRIRTRPPRLPRPRPRPGPMPRP is 0.101; for RRIRDRPPRLPRPRPRPMRNPRP it is 0.416.
In the case of RRIRERPPRLPRPRPRPIPCPRP, the “shrunken log2 fold change” value is -0.341.
RRIRNRPPRLPRPRPRPRREPRP: the “shrunken log2 fold change” value came to 0.38.
The same measure for RRIRNRPPRLPRPRPRPYGLPRP: -0.106; for RRIRCRPPRLPRPRPRPWKIPRP: -0.268.
Regarding RRIRRRPPRLPRPRPRPPFGPRP, the “shrunken log2 fold change” value came to 0.453.
Consider RRIRLRPPRLPRPRPRPPKVPRP, for which the “shrunken log2 fold change” value came out at 0.287.
For the sequence RRIRNRPPRLPRPRPRPQMQPRP, the “shrunken log2 fold change” value was -0.0154.
The same measure for RRIRPRPPRLPRPRPRPWMRPRP: 0.715; for RRIRMRPPRLPRPRPRPPDWPRP: 1.7; for RRIRQRPPRLPRPRPRPGRVPRP: 0.422.
The same measure for RRIRQRPPRLPRPRPRPWPPPRP: 0.16; for RRIRPRPPRLPRPRPRPCECPRP: -0.014.
Take RRIRHRPPRLPRPRPRPEFPPRP: the “shrunken log2 fold change” value came out at 0.0962.
The same measure for RRIRDRPPRLPRPRPRPMGWPRP: 0.476; for RRIRDRPPRLPRPRPRPMTIPRP: 0.0371.
The same measure for RRIRDRPPRLPRPRPRPTSEPRP: 0.236; for RRIRTRPPRLPRPRPRPVRMPRP: 0.148.
For the sequence RRIRSRPPRLPRPRPRPMGKPRP, the “shrunken log2 fold change” value was -0.00865.
The figure for RRIRERPPRLPRPRPRPNFVPRP is 0.0109.
The figure for RRIRNRPPRLPRPRPRPDCQPRP is 0.0461; for RRIRNRPPRLPRPRPRPVWAPRP it is 0.599.
The figure for RRIRHRPPRLPRPRPRPTMAPRP is -0.0607; for RRIRLRPPRLPRPRPRPPSIPRP it is -0.0597.
RRIRCRPPRLPRPRPRPIPGPRP: the “shrunken log2 fold change” value is -0.000108.
The figure for RRIRWRPPRLPRPRPRPKGEPRP is 0.74.
The figure for RRIRNRPPRLPRPRPRPETWPRP is 0.0309; for RRIRIRPPRLPRPRPRPTFLPRP it is -0.679.
RRIRIRPPRLPRPRPRPCLGPRP: the “shrunken log2 fold change” value was -0.157.
The same measure for RRIRQRPPRLPRPRPRPSDRPRP: -0.264; for RRIRQRPPRLPRPRPRPVYVPRP: -0.216.
The same measure for RRIRQRPPRLPRPRPRPAGDPRP: 0.127; for RRIRMRPPRLPRPRPRPRTCPRP: 0.00872; for RRIRPRPPRLPRPRPRPAKCPRP: -0.172.
On to RRIRDRPPRLPRPRPRPMTCPRP, for which the “shrunken log2 fold change” value was 0.0184.
The same measure for RRIRWRPPRLPRPRPRPRYSPRP: -0.136.
The same measure for RRIRIRPPRLPRPRPRPLIFPRP: -0.562; for RRIRTRPPRLPRPRPRPVNEPRP: -0.103.
Turning to RRIRRRPPRLPRPRPRPNDFPRP, the “shrunken log2 fold change” value was -0.189.
As to RRIRWRPPRLPRPRPRPGHDPRP, the “shrunken log2 fold change” value came out at 0.043.
RRIRHRPPRLPRPRPRPHRWPRP: the “shrunken log2 fold change” value worked out at 0.0507.
With RRIRRRPPRLPRPRPRPSHWPRP, the “shrunken log2 fold change” value is 0.183.
For the sequence RRIRVRPPRLPRPRPRPDTWPRP, the “shrunken log2 fold change” value was -0.407.
The same measure for RRIRRRPPRLPRPRPRPRVHPRP: 0.264.
Take RRIRWRPPRLPRPRPRPSYRPRP: the “shrunken log2 fold change” value is -0.895.
The same measure for RRIRVRPPRLPRPRPRPGVEPRP: 0.243; for RRIRTRPPRLPRPRPRPMKPPRP: -0.0805; for RRIRWRPPRLPRPRPRPMGHPRP: -0.116.
The same measure for RRIRKRPPRLPRPRPRPKTFPRP: -0.124; for RRIRSRPPRLPRPRPRPYGEPRP: -0.256; for RRIRQRPPRLPRPRPRPKETPRP: 0.00762.
The figure for RRIRTRPPRLPRPRPRPKRMPRP is -0.157; for RRIRWRPPRLPRPRPRPYWYPRP it is -1.33.
With RRIRVRPPRLPRPRPRPYDMPRP, the “shrunken log2 fold change” value was -0.382.
RRIRVRPPRLPRPRPRPKIKPRP: the “shrunken log2 fold change” value was -0.303.
The same measure for RRIRHRPPRLPRPRPRPATCPRP: -0.196.
For the sequence RRIRERPPRLPRPRPRPLYLPRP, the “shrunken log2 fold change” value was -0.77.
Take RRIRNRPPRLPRPRPRPHKYPRP: the “shrunken log2 fold change” value was -1.52.
As to RRIRGRPPRLPRPRPRPNLFPRP, the “shrunken log2 fold change” value turned out to be 0.129.
The figure for RRIRDRPPRLPRPRPRPYSDPRP is 0.0396.
Regarding RRIRFRPPRLPRPRPRPMPHPRP, the “shrunken log2 fold change” value was -0.0704.
The figure for RRIRDRPPRLPRPRPRPCPWPRP is 0.0761.
Take RRIRSRPPRLPRPRPRPITIPRP: the “shrunken log2 fold change” value was -0.324.
As for RRIRPRPPRLPRPRPRPITRPRP, the “shrunken log2 fold change” value is 0.31.
Take RRIRPRPPRLPRPRPRPLHFPRP: the “shrunken log2 fold change” value is -0.207.
The same measure for RRIRKRPPRLPRPRPRPFAMPRP: 0.359.
As to RRIRGRPPRLPRPRPRPMISPRP, the “shrunken log2 fold change” value stood at 1.18.
On to RRIRNRPPRLPRPRPRPQRCPRP, for which the “shrunken log2 fold change” value worked out at 0.0227.
Consider RRIRMRPPRLPRPRPRPLQVPRP, for which the “shrunken log2 fold change” value worked out at 0.21.
On to RRIRRRPPRLPRPRPRPMQLPRP, for which the “shrunken log2 fold change” value was found to be 0.596.
As to RRIRHRPPRLPRPRPRPQLYPRP, the “shrunken log2 fold change” value was -0.238.
The figure for RRIRNRPPRLPRPRPRPTISPRP is -0.969; for RRIRCRPPRLPRPRPRPVFKPRP it is -0.355; for RRIRLRPPRLPRPRPRPDNYPRP it is 0.0733.
The same measure for RRIRTRPPRLPRPRPRPPSEPRP: 0.42; for RRIRYRPPRLPRPRPRPNAWPRP: -0.165; for RRIRERPPRLPRPRPRPVAWPRP: 0.00482.
The same measure for RRIRRRPPRLPRPRPRPIAFPRP: -0.0124; for RRIRARPPRLPRPRPRPWFWPRP: 0.544; for RRIRVRPPRLPRPRPRPQMNPRP: -0.0919.
Take RRIRIRPPRLPRPRPRPDRIPRP: the “shrunken log2 fold change” value is 0.0297.
RRIRFRPPRLPRPRPRPGCLPRP: the “shrunken log2 fold change” value is -0.0626.
The figure for RRIRKRPPRLPRPRPRPCFPPRP is 0.123.
